We go through 34 molecules from patent publication US20180291110A1 (Hoffmann-La Roche, published 2018).

The target in the test is T1, human transferrin receptor (recombinant, for surface plasmon resonance) (human, UniProt P02786 89-760).
T1 construct: also called huTfR; human transferrin receptor-biotinylated
Description: SPR 25C.

Positions count from the first letter of the chain named.

T1 sequence (P02786 89-760 limits assumed): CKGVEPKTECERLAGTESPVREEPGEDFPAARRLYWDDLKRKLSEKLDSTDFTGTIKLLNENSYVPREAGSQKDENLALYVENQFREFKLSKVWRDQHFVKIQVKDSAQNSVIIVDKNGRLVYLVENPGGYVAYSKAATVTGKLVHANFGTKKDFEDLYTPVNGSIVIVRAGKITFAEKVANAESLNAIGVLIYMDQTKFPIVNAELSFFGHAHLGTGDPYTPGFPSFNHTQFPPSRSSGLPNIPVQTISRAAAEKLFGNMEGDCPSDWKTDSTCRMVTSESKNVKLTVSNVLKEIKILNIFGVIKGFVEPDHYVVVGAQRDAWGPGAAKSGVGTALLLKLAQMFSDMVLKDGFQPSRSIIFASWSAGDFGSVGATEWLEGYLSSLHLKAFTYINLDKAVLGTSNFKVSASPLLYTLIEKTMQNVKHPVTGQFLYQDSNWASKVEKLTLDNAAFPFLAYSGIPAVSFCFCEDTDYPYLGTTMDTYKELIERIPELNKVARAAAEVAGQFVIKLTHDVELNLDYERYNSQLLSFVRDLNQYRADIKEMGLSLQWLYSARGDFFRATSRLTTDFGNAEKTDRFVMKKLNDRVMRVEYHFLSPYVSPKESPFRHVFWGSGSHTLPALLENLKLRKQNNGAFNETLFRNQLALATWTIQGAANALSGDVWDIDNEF

B1: 2/99 VH6/VL7 (antibody, V domains shown)
VH: QQLVETGGGLIQPGGSLRLSCAASGFSLSSYAMSWVRQAPGKGLEWIGYIWSGGSTDYADSVKGRFTISRDNSKNTLYLQMNSLRAEDTAVYYCARRYGTSYPDYGDANGFDPWGQGTLVTVSS
VL: AIQLTQSPSSLSASVGDRVTITCRASQSISSYLAWYQQKPGKAPKLLIYRASTLASGVPSRFSGSGSGTDFTLTISSLQPEDFATYYCQQSYSSSNVDNTFGGGTKVEIK
Take B1: the koff – broadly, the rate constant with which the complex falls apart – worked out at 0.00563 s⁻¹.

B2: 2/99 VH20/VL7 (antibody, V domains shown)
VH: QSMQESGPGLVKPSQTLSLTCTVSGFSLSSYAMSWIRQHPGKGLEWIGYIWSGGSTDYAPSLKSRVTISVDTSKNQVSLKLSSVTAADTAVYYCARRYGTSYPDYGDANGFDPWGQGTLVTVSS
VL: B1 VL
Consider B2, for which the dissociation rate constant (koff) was found to be 0.00714 s⁻¹.

B3: 2/99 VH6/VL8 (antibody, V domains shown)
VH: B1 VH
VL: B1 VL with I2Y, A34S
For B3, the off-rate constant (koff) was determined as 0.00301 s⁻¹.

B4: 2/99 VH11/VL8 (antibody, V domains shown)
VH: B1 VH with V4L, T6S, I11V, I47V
VL: B1 VL with I2Y, A34S
Turning to B4, the koff amounted to 0.00552 s⁻¹.

B5: 2/99 VH20/VL8 (antibody, V domains shown)
VH: B2 VH
VL: B1 VL with I2Y, A34S
Consider B5, for which the off-rate constant (koff) was found to be 0.00658 s⁻¹.

B6: 2/99 VH8/VL8 (antibody, V domains shown)
VH: QQLVETGGGLIQPGGSLRLSCAASGFSLSSYAMSWVRQAPGKGLEWIGYIWSGGSTDYASWAKGRFTISKTSTTLYLQMNSLRAEDTAVYYCARRYGTSYPDYGDANGFDPWGQGTLVTVSS
VL: B1 VL with I2Y, A34S
With B6, the koff worked out at 0.00116 s⁻¹.

B7: 2/99 VH18/VL7 (antibody, V domains shown)
VH: QVQLQESGPGLVKPSQTLSLTCTVSGFSLSSYAMSWIRQHPGKGLEWIGYIWSGGSTDYAPSLKSRVTISVDTSKNQFSLKLSSVTAADTAVYYCARRYGTSYPDYGDANGFDPWGQGTLVTVSS
VL: B1 VL
Turning to B7, the koff turned out to be 0.00766 s⁻¹.

B8: 2/99 VH22/VL7 (antibody, V domains shown)
VH: B2 VH with I36V, P60S, S61W, L62A
VL: B1 VL
Take B8: the koff worked out at 0.00337 s⁻¹.

B9: 2/99 VH19/VL8 (antibody, V domains shown)
VH: B2 VH with V77F
VL: B1 VL with I2Y, A34S
Regarding B9, the koff is 0.00671 s⁻¹.

B10: 2/99 VH1/VL8 (antibody, V domains shown)
VH: B1 VH with Q1V, I47V
VL: B1 VL with I2Y, A34S
For the molecule B10, the koff amounted to 0.00485 s⁻¹.

B11: 2/99 VH11/VL7 (antibody, V domains shown)
VH: B1 VH with V4L, T6S, I11V, I47V
VL: B1 VL
As for B11, the koff worked out at 0.00781 s⁻¹.

B12: 2/99 VH16/VL7 (antibody, V domains shown)
VH: B2 VH with S2Q, M3L, Q15E, I36V, H39P, A59N, Q116P
VL: B1 VL
For B12, the off-rate constant (koff) worked out at 0.00525 s⁻¹.

B13: 2/99 VH15/VL7 (antibody, V domains shown)
VH: B2 VH with S2Q, M3L, Q15E, I36V, H39P, A59N
VL: B1 VL
As for B13, the dissociation rate constant (koff) was determined as 0.00543 s⁻¹.

B14: 2/99 VH12/VL7 (antibody, V domains shown)
VH: B7 VH with Q16E, H40P, A60N
VL: B1 VL
Consider B14, for which the koff amounted to 0.00771 s⁻¹.

B15: 2/99 VH21/VL7 (antibody, V domains shown)
VH: B2 VH with P60S, S61W, L62A
VL: B1 VL
On to B15, for which the koff was determined as 0.00238 s⁻¹.

B16: 2/99 VH17/VL8 (antibody, V domains shown)
VH: B2 VH with S2Q, M3L, Q15E, I36V, H39P, A59N, V70K, Q116P
VL: B1 VL with I2Y, A34S
Regarding B16, the koff was 0.00111 s⁻¹.

B17: 2/99 VH9/VL8 (antibody, V domains shown)
VH: B1 VH with V4L, T6S, I11V, S27T, L28F, I47V, R96K
VL: B1 VL with I2Y, A34S
Consider B17, for which the koff amounted to 0.00523 s⁻¹.

B18: 2/99 VH22/VL8 (antibody, V domains shown)
VH: B2 VH with I36V, P60S, S61W, L62A
VL: B1 VL with I2Y, A34S
In the case of B18, the koff was 0.00165 s⁻¹.

B19: 2/99 VH23-DANG/VL7 (antibody, V domains shown)
VH: QSMQESGPGLVKPSQTLSLTCTVSGFSLSSYAMSWIRQHPGKGLEWIGYIWSGGSTDYASWAKSRVTISKTSTTVSLKLSSVTAADTAVYYCARRYGTSYPDYGDANGFDPWGQGTLVTVSS
VL: B1 VL
As for B19, the dissociation rate constant (koff) amounted to 0.00155 s⁻¹.

B20: 2/99 VH19/VL7 (antibody, V domains shown)
VH: B2 VH with V77F
VL: B1 VL
Turning to B20, the koff was 0.001 s⁻¹.

B21: 2/99 VH2/VL8 (antibody, V domains shown)
VH: EVQLVETGGGLIQPGGSLRLSCAASGFSLSSYAMSWVRQAPGKGLEWVGYIWSGGSTDYADSVKGRFTISRDNSKNTLYLQMNSLRAEDTAVYYCARRYGTSYPDYGDANGFDPWGQGTLVTVSS
VL: B1 VL with I2Y, A34S
In the case of B21, the off-rate constant (koff) amounted to 0.00394 s⁻¹.

B22: 2/99 VH16/VL8 (antibody, V domains shown)
VH: B2 VH with S2Q, M3L, Q15E, I36V, H39P, A59N, Q116P
VL: B1 VL with I2Y, A34S
As to B22, the koff is 0.00197 s⁻¹.

B23: 2/99 VH9/VL7 (antibody, V domains shown)
VH: B1 VH with V4L, T6S, I11V, S27T, L28F, I47V, R96K
VL: B1 VL
Turning to B23, the off-rate constant (koff) is 0.00761 s⁻¹.

B24: 2/99 VH15/VL8 (antibody, V domains shown)
VH: B2 VH with S2Q, M3L, Q15E, I36V, H39P, A59N
VL: B1 VL with I2Y, A34S
As for B24, the koff was found to be 0.00209 s⁻¹.

B25: 2/99 VH7/VL8 (antibody, V domains shown)
VH: B1 VH with D60S, S61W, V62A
VL: B1 VL with I2Y, A34S
As for B25, the off-rate (koff) is 0.00172 s⁻¹.

B26: 2/99 VH21/VL8 (antibody, V domains shown)
VH: B2 VH with P60S, S61W, L62A
VL: B1 VL with I2Y, A34S
Take B26: the dissociation rate constant (koff) was found to be 0.00174 s⁻¹.

B27: 2/99 VH7/VL7 (antibody, V domains shown)
VH: B1 VH with D60S, S61W, V62A
VL: B1 VL
For the molecule B27, the dissociation rate constant (koff) was 0.00366 s⁻¹.

B28: 2/99 VH8/VL7 (antibody, V domains shown)
VH: B6 VH
VL: B1 VL
In the case of B28, the koff was determined as 0.00231 s⁻¹.

B29: 2/99 VH13/VL7 (antibody, V domains shown)
VH: B7 VH with Q16E, H40P, A60N, F78V
VL: B1 VL
Consider B29, for which the koff turned out to be 0.00668 s⁻¹.

B30: 2/99 VH17/VL7 (antibody, V domains shown)
VH: B2 VH with S2Q, M3L, Q15E, I36V, H39P, A59N, V70K, Q116P
VL: B1 VL
With B30, the off-rate constant (koff) was 0.00233 s⁻¹.

B31: 2/99 VH18/VL8 (antibody, V domains shown)
VH: B7 VH
VL: B1 VL with I2Y, A34S
With B31, the koff came out at 0.00677 s⁻¹.

B32: 2/99 VH13/VL8 (antibody, V domains shown)
VH: B7 VH with Q16E, H40P, A60N, F78V
VL: B1 VL with I2Y, A34S
Take B32: the off-rate constant (koff) turned out to be 0.00247 s⁻¹.

B33: 2/99 VH12/VL8 (antibody, V domains shown)
VH: B7 VH with Q16E, H40P, A60N
VL: B1 VL with I2Y, A34S
As to B33, the koff worked out at 0.00531 s⁻¹.

B34: 2/99 VH5/VL8 (antibody, V domains shown)
VH: B1 VH with Q2S, L3M, V4E, I47V, Q116P
VL: B1 VL with I2Y, A34S
For the molecule B34, the off-rate constant (koff) was determined as 0.00378 s⁻¹.
